Publication PMC6827314, “An aldo-keto reductase with 2-keto-L-gulonate reductase activity functions in L-tartaric acid biosynthesis from vitamin C in Vitis vinifera” (The Journal of Biological Chemistry, 2019)

Experiments:
[1] = molecular target: the molecule itself; experiment: crystal structure; ligand-free Vv2KGR, space group P2(1), four subunits (chains A-D) in the asymmetric unit, 1.58 Å; crystals from 1.26 M ammonium sulfate, 100 mM sodium acetate/acetic acid pH 4.5, 200 mM NaCl, 16 °C; oligomeric interface analysed with PDBePISA
purified protein [2] = substrate: O=C(O)C(=O)[C@@H](O)[C@H](O)[C@@H](O)CO; experiment: purified protein; assay type: biochemical, Vitis vinifera; conditions: 1 mM NADPH, 100 mM HEPES pH 7.5, 37 °C
purified protein [3] = substrate: O=CC(=O)O; experiment: purified protein; assay type: biochemical, Vitis vinifera; conditions: 1 mM NADPH, 100 mM HEPES pH 7.5, 37 °C
purified protein [4] = substrate: CC(=O)C(=O)O; experiment: purified protein; assay type: biochemical, Vitis vinifera; conditions: 1 mM NADPH, 100 mM HEPES pH 7.5, 37 °C
purified protein [5] = substrate: O=C(O)C(=O)CO; experiment: purified protein; assay type: biochemical, Vitis vinifera; conditions: 1 mM NADPH, 100 mM HEPES pH 7.5, 37 °C

B1: Vitis vinifera 2-keto-L-gulonate reductase (Vv2KGR) (enzyme, UniProt A5CAL1 1-313, looked up)
chain: MESIGVLLTCPMNPYLEQELDKRFKLFRFWDFPSANDLFREHSNSIRAVVGNSFIGADAQMIEALPKMEIVSSFSVGLDKIDLVRCKEKGIRVTNTPDVLTEDVADLALALILATLRRICESDRYVRSGSWKKGDFKLTTKFTGKSVGIIGLGRIGSAIAKRAEGFSCPISYHSRTEKPGTNYKYYPSVVELASNCQILVVACALTPETRHIINREVINALGPKGVVINIGRGLHVDEPELVSALVEGRLGGAGLDVFENEPNVPEELLAMDNVVLLPHVGSGTVETRKDMADLVLGNLEAHFLNKPLLTPVV
notes: Vv2KGR, Vitis vinifera cv; The forward primer carries an ATG of the NdeI site directly before the gene's own ATG; also called aldo-keto reductase; apo-Vv2KGR; source: E. coli BL21(DE3) pLysS-T1, pET14b, purified (HisTrap FF Crude, HiTrap Q HP, dialysis); not shown: His tag (from the vector pET14b)
stoichiometry N [1]: 2
Km (purified protein [2]): 700 µM
Vmax (purified protein [2]): 7.54 µmol/min/mg
kcat (purified protein [2]): 4.18 s⁻¹
Km (purified protein [3]): 44 µM
Vmax (purified protein [3]): 13.8 µmol/min/mg
kcat (purified protein [3]): 38.3 s⁻¹
Km (purified protein [4]): 1371 µM
Km (purified protein [5]): 96 µM
Vmax (purified protein [5]): 6.29 µmol/min/mg
kcat (purified protein [5]): 6.97 s⁻¹
